What was measured:
[1] = target: T1, His-tagged (6x) Drosophila histone H1 fusion protein (Drosophila, UniProt P02255 1-256); test: pull-down
T1 sequence (looked up): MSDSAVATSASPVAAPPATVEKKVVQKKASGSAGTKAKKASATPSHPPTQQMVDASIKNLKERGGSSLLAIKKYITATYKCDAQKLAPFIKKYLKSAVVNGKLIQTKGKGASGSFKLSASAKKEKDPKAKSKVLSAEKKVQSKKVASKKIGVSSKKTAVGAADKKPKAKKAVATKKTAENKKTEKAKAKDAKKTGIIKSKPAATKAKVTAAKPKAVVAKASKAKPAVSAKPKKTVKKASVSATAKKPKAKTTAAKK

[2] = target: T2, full-length Drosophila histone H1 fusion protein with a maltose binding protein-tag (Drosophila, UniProt P02255 1-256); test: far-Western, overlay or dot blot
T2 sequence (looked up): T1 sequence (looked up)

B1: GST-tagged Chromator chromodomain (219-277) (domain or fragment, Drosophila, UniProt Q86BS3 219-277, looked up)
chain: TEEPVEKIVAKRFNPRRKTHEYLVKWVDRSHHENTWEVMANLERVPYFLQMFEKQLARQ
binding result [1]: binds
binding result [2]: binds

Reference: publication PMC3310976 (Chromosoma, 2011)
